Results from patent US20170298146A1 (MODIQUEST B V, published 2017).
Non-standard residues stand in square brackets, D forms with d. No end group written: not given here. Cit = NC(=O)NCCC[C@H](N)C(=O)O

Columns and labels:
[1] = biological target: T1, CFC-1; assay: peptide ELISA, 0.00064 ug/well
T1 construct: Positive control for anti-citrulline reactivity; also called cfc1 XG
Protocol: (§1) Biotin and citrulline-containing peptides derived from histone 2A were immobilized on NEUTRAVIDIN®-coated 96-well ELISA plates (0.3 μg/well). CFC-1 and CFC-0 were coated at the same concentration and served as positive and negative controls respectively for specific anti-citrulline reactivity and as coating controls. Non-coated wells were used to test for aspecific binding of the antibodies. […] Detection of bound anti-citrulline antibodies was performed by incubating the wells with rabbit-anti-human-HRP (1:2000) for one hour at RT followed by incubation with TMB substrate. The resulting OD (y-axis) is a measure for antibody binding.
(§2) Ninety-six-well ELISA plates were coated with NEUTRAVIDIN® (0.1 μg/well) by overnight incubation at 4° C. Wells were washed five times with PBS-TWEEN®-20 (PBS-T) and blocked by a one-hour incubation with PBS-T+1% Bovine serum albumin (BSA) at room temperature (RT). After five more washes with PBS-T, wells were incubated for one hour at RT with histone-derived citrulline and biotin-containing peptides (0.3 μg/well). […] Wells were washed five times with PBS-T and incubated with rabbit-anti-human-HRP (1:2000) for one hour at RT followed by five washes with PBS-T and three wash steps with PBS. Wells were incubated for five minutes with TMB substrate before stopping the reaction with 2 M H₂SO₄. Optical density was measured by 450 nm and is a measure for the affinity of the antibodies used.

[2] = biological target: T2, Histone 2A citrulline-containing peptide 1 (human, also: biotin label); assay: peptide ELISA, 0.00064 ug/well
T2 construct: also called AAASGXGKQGGK
T2 peptide: AAASG[Cit]GKQGGK
Protocol: as §1, §2

[3] = biological target: T3, Histone 2A citrulline-containing peptide 2 (human, also: biotin label); assay: peptide ELISA, 0.00064 ug/well
T3 peptide: AKAKS[Cit]SSRAGL
Protocol: as §1, §2

[4] = biological target: T4, Histone 2A citrulline-containing peptide 11 (human, also: biotin label); assay: peptide ELISA, 0.00064 ug/well
T4 peptide: LQLAI[Cit]NDEELN
Protocol: as §1, §2

[5] = biological target: T5, Histone 2A citrulline-containing peptide 7 (human, also: biotin label); assay: peptide ELISA, 0.00064 ug/well
T5 peptide: GNYSE[Cit]VGAGAP
Protocol: as §1, §2

[6] = biological target: T6, Histone 2A citrulline-containing peptide 9 (human, also: biotin label); assay: peptide ELISA, 0.00064 ug/well
T6 peptide: DNKKT[Cit]IIPRHL
Protocol: as §1, §2

[7] = biological target: T7, Histone 2A citrulline-containing peptide 4 (human, also: biotin label); assay: peptide ELISA, 0.00064 ug/well
T7 peptide: QFPVG[Cit]VHRLLR
Protocol: as §1, §2

[8] = biological target: T8, Histone 2A citrulline-containing peptide 8 (human, also: biotin label); assay: peptide ELISA, 0.00064 ug/well
T8 peptide: AGNAA[Cit]DNKKTR
Protocol: as §1, §2

[9] = biological target: T9, Histone 2A citrulline-containing peptide 5 (human, also: biotin label); assay: peptide ELISA, 0.00064 ug/well
T9 peptide: VGRVH[Cit]LLRKGN
Protocol: as §1, §2

[10] = biological target: T10, msFibα XG (mouse, X at position 8 is citrulline; biotin label); assay: peptide ELISA, 0.016 ug/well
T10 peptide: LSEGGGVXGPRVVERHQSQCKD
Protocol: as §1, with “fibrinogen and vimentin” for “histone 2A”
(§3) Biotin-labeled and citrulline-containing fibrinogen and vimentin peptides (Table 5) were also tested for reactivity with the therapeutic antibodies. Peptides were coated on 96-well NEUTRAVIDIN®-ELISA plates.

[11] = biological target: T11, msVim XS/XL (mouse, also: biotin label); assay: peptide ELISA, 0.016 ug/well
T11 construct: also called mouse vimentin peptide
T11 peptide: YVT[Cit]SSAV[Cit]L[Cit]SSVP
Protocol: as §1, with “fibrinogen and vimentin” for “histone 2A”
as §3

[12] = biological target: T12, huFibα XG (human, X at position 8 is citrulline; biotin label); assay: peptide ELISA, 0.016 ug/well
T12 peptide: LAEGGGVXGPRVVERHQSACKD
Protocol: as §1, with “fibrinogen and vimentin” for “histone 2A”
as §3

[13] = biological target: T13, Histone 2A citrulline-containing peptide 6 (human, also: biotin label); assay: peptide ELISA, 0.016 ug/well
T13 peptide: VHRLL[Cit]KGNYSE
Protocol: as §1, §2

[14] = biological target: T1, CFC-1; assay: ELISA, 0.08 ug/well
Protocol: (§4) CFC-1 and CFC-0 were coated at the same concentration and served as positive and negative controls, respectively, for specific anti-citrulline reactivity and as coating controls. Non-coated wells were used to test for aspecific binding of the antibodies. […] Detection of bound anti-citrulline antibodies was performed by incubating the wells with rabbit-anti-human-HRP (1:2000) for one hour at RT followed by incubation with TMB substrate. The resulting OD (y-axis) is a measure for antibody binding. H1=recombinant histone 1; H1/p2=huPAD2 recombinant histone 1; H1/p4=huPAD4 recombinant histone 1 and so forth (x-axis).

[15] = biological target: human recombinant histone H4 (human, UniProt P62805 2-103); assay: ELISA, 0.08 ug/well
Protocol: as §4

[16] = biological target: T14, huPAD4 deiminated human recombinant histone H2B (human); assay: ELISA, 0.08 ug/well
T14 construct: also called H2B/p4
Protocol: as §4

[17] = biological target: T15, huPAD2 deiminated human recombinant histone H3 (human); assay: ELISA, 0.08 ug/well
T15 construct: also called H3/p2
Protocol: as §4

[18] = biological target: T16, human recombinant histone H2A (human); assay: ELISA, 0.08 ug/well
T16 construct: Non-deiminated
Protocol: as §4

[19] = biological target: T17, human recombinant histone H2B (human); assay: ELISA, 0.08 ug/well
T17 construct: Non-deiminated
Protocol: as §4

[20] = biological target: T18, huPAD2 deiminated human recombinant histone H2B (human); assay: ELISA, 0.08 ug/well
T18 construct: also called H2B/p2
Protocol: as §4

[21] = biological target: T19, huPAD2 deiminated human recombinant histone H2A (human); assay: ELISA, 0.08 ug/well
T19 construct: also called H2A/p2
Protocol: as §4

[22] = biological target: T20, huPAD4 deiminated human recombinant histone H2A (human); assay: ELISA, 0.08 ug/well
T20 construct: also called H2A/p4; huPAD4 deiminated histone 2A
Protocol: as §4

[23] = biological target: T21, huPAD4 deiminated human recombinant histone H3 (human); assay: ELISA, 0.08 ug/well
T21 construct: also called H3/p4
Protocol: as §4

B1: RhmAb2.102 (antibody, human IgG1, lambda)
heavy: not shown
light: QSVLTQPPSMSAAPGQKVTISCSGSSSNIGNNYVSWYQQVPGTAPKLLIYDDNKRPSGIPGRFSGSKSATSATLGITGLQAGDEADYYCGSWDDNLSVVLFGGGTKLTVLGQPKAAPSVTLFPPSSEELQANKATLVCLISDFYPGAVTVAWKADSSPVKAGVETTTPSKQSNNKYAASSYLSLTPEQWKSHRSYSCQVTHEGSTVEKTVAPTECS
notes: Human IgG1 lambda; also called Rhm2.102
B1 was tested, and the OD [1] was 0.621 OD, the OD [2] was 0.16 OD and the OD [3] was 0.055 OD. For the same binder, the OD [4] was 0.06 OD, the OD [5] was 0.057 OD and the OD [6] was 0.059 OD. It also gave an OD [7] of 0.063 OD, an OD [8] of 0.057 OD and an OD [9] of 0.067 OD. For the same binder, the OD [10] was 0.107 OD, the OD [11] was 0.201 OD and the OD [12] was 0.103 OD. The OD [13] was 0.075 OD, the OD [14] was 2.15 OD and the OD [15] was 0.067 OD. It also gave an OD [16] of 0.052 OD, an OD [17] of 0.493 OD and an OD [18] of 0.06 OD. The OD [19] was 0.054 OD, the OD [20] was 0.053 OD and the OD [21] was 1.96 OD. For the same binder, the OD [22] was 1.75 OD and the OD [23] was 0.093 OD.
